Values quoted from earlier work as cited in PMC9434060 (Heliyon, 2022).

Conditions: hIntL-1, ligand not given; ref [10]

- Kd: 85 ± 14 nM
B1: hIntL-1: Human intelectin-1, disulfide-linked trimeric lectin (protein, UniProt Q8WWA0 19-298, looked up)
Intelectin-1: TDEANTYFKEWTCSSSPSLPRSCKEIKDECPSAFDGLYFLRTENGVIYQTFCDMTSGGGGWTLVASVHENDMRGKCTVGDRWSSQQGSKAVYPEGDGNWANYNTFGSAEAATSDDYKNPGYYDIQAKDLGIWHVPNKSPMQHWRNSSLLRYRTDTGFLQTLGHNLFGIYQKYPVKYGEGKCWTDNGPVIPVVYDFGDAQKTASYYSPYGQREFTAGFVQFRVFNNERAANALCAGMRVTGCNTEHHCIGGGGYFPEASPQQCGDFSGFDWSGYGTHVGYS
